Assay [1] addresses Human IL-2 R alpha protein, His Tag (Acro, ILA-H52H9) (human) (UniProt P01589). The assay is described as follows: BLI. Conditions: ligand.
Assay [2] deals with Human IL-2 R beta protein, His-Tag (Acro, CD2-H5221) (human) (UniProt P14784). In words: BLI. The conditions noted are these: ligand.
Sequence of UniProt P14784 (P14784 27-239): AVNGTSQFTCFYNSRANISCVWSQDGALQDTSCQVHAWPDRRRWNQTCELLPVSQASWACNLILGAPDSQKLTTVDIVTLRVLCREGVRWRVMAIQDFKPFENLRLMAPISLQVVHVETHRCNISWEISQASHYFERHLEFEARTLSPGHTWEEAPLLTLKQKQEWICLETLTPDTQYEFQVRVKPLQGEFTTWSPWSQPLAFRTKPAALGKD

Sequence of UniProt P01589 (P01589 22-213): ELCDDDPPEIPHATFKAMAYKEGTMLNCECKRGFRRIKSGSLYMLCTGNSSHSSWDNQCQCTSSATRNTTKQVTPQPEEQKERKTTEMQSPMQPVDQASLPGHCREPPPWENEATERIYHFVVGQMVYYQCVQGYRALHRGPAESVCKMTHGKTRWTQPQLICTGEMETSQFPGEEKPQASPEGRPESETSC

Broadly, the Kd is the concentration at which binding is half-saturated. For the substance “Proleukin (Novartis, hIL-2) (from UniProt P60568 22-153)”, the dissociation constant Kd in assay [1] is 1.3 nM; in assay [2] it was 91.7 nM.
